Target: T1, Kir2.1 tagged with mVenus and PAmCherry (human), P63252
T1 chain: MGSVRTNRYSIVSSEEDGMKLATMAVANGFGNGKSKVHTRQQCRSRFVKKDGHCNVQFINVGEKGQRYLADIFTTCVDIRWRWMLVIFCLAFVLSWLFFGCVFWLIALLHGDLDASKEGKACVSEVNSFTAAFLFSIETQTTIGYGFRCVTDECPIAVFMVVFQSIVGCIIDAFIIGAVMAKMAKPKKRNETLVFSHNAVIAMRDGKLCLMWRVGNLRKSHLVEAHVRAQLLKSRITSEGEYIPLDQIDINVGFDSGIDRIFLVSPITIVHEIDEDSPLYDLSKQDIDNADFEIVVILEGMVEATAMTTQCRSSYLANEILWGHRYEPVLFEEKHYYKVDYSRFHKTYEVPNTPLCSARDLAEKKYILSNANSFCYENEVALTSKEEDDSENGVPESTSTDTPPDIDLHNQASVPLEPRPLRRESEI
Test: native gel or EMSA; high-resolution clear native electrophoresis (hrCNE); lysate of transfected HEK293T cells in 0.1 M sodium phosphate with 0.5% digitonin or 20 mM DDM; 4-14% acrylamide gradient gel run at 4 °C; mVenus fluorescence scanned; VGLUTs and sialin with and without PNGaseF
Conditions: remark: other sources report otherwise

stoichiometry N: 4
B1: Kir2.1 tagged with mVenus and PAmCherry, P63252 1-427 (natural protein)
chain: MGSVRTNRYSIVSSEEDGMKLATMAVANGFGNGKSKVHTRQQCRSRFVKKDGHCNVQFINVGEKGQRYLADIFTTCVDIRWRWMLVIFCLAFVLSWLFFGCVFWLIALLHGDLDASKEGKACVSEVNSFTAAFLFSIETQTTIGYGFRCVTDECPIAVFMVVFQSIVGCIIDAFIIGAVMAKMAKPKKRNETLVFSHNAVIAMRDGKLCLMWRVGNLRKSHLVEAHVRAQLLKSRITSEGEYIPLDQIDINVGFDSGIDRIFLVSPITIVHEIDEDSPLYDLSKQDIDNADFEIVVILEGMVEATAMTTQCRSSYLANEILWGHRYEPVLFEEKHYYKVDYSRFHKTYEVPNTPLCSARDLAEKKYILSNANSFCYENEVALTSKEEDDSENGVPESTSTDTPPDIDLHNQASVPLEPRPLRRESEI

From paper PMC9584609
